Assay type in all cases: binding
In test [1] the target is T1, PDZ protein (GST-PDZ fusion) (Homo sapiens, UniProt P57105).
T1 construct: made in house; host or cells: E. coli (DH5alpha, BL21 or JM109)
T1 sequence (P57105 1-145): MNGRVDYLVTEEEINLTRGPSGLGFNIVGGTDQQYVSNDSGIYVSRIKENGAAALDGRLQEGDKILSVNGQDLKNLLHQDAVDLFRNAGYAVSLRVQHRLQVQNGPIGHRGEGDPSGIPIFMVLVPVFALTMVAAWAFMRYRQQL
Description: G' assay (10 uM PL peptide), results of TABLE 7 and TABLE 12. To be noted: PDZ Outer Membrane, PDZ Domain 1. The essentials:
(§1)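 Biotin-PL peptide (N-term label), 10 uM vs GST-PDZ; protein 5 ug/ml by default. A450 nm binned: 1 = 0-1, 2 = 1-2, 3 = 2-3, 4 = 3-4, 5 = >4 on >2 repeats, 0 = no binding.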

Test [2] concerns the target T2, PDZ protein (GST-PDZ fusion) (Homo sapiens, UniProt Q6P0Q8).
T2 construct: made in house; host or cells: E. coli (DH5alpha, BL21 or JM109)
The test is described as above. The essentials:
as §1

Test [3] concerns the target T3, PDZ protein (GST-PDZ fusion) (Homo sapiens, UniProt Q9P202).
T3 construct: made in house; host or cells: E. coli (DH5alpha, BL21 or JM109)
T3 sequence (Q9P202 1-907): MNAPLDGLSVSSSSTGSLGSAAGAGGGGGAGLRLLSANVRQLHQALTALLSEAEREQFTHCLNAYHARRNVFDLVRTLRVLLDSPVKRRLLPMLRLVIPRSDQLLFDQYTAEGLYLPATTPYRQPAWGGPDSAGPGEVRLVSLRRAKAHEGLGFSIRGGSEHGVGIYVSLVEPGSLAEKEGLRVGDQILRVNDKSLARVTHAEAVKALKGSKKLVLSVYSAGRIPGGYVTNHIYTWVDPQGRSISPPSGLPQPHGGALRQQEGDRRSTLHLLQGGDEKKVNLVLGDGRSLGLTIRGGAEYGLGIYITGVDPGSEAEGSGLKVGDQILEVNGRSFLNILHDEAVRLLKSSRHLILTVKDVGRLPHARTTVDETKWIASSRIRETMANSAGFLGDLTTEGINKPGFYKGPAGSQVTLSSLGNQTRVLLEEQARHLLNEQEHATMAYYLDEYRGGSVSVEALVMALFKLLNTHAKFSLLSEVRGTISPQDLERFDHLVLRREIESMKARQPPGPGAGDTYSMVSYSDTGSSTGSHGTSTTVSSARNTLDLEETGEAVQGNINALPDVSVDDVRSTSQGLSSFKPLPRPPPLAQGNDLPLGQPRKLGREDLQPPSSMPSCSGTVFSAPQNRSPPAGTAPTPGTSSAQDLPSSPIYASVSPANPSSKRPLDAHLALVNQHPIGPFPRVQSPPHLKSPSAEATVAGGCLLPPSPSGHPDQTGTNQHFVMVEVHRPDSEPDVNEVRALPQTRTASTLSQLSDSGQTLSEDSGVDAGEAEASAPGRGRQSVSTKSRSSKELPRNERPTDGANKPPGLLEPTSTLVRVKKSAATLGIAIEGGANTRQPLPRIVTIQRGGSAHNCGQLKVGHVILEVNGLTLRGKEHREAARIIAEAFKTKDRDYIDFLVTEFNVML
The description is as above. To be noted: PDZ KIAA1526, PDZ Domain 1. The essentials:
as §1

The target in test [4] is T4, PDZ-domain polypeptide (GST/PDZ fusion protein) (Homo sapiens, UniProt Q6P0Q8).
T4 construct: made in house; host or cells: E. coli (DH5alpha, BL21 or JM109)
The test is described as follows: Apparent affinity (Kd) by titration of PL peptide in the G assay. To be noted: PDZ KIAA0807(S), PDZ Domain 1; titration of the PL peptide; read-out: Peptide Optimal Conc (Kd, dissociation constant). On the procedure:
The third column labeled “Peptide Optimal Concentration” in the tables is a number reflective of the binding interaction between the PL protein and PDZ protein. […] The column labeled “Protein Optimal Concentration” refers to the protein concentration used to assay PL interaction (in ug/ml); a ‘0’ is indicative of 5 ug/ml protein concentration; any other value represents the concentration (in ug/ml) used to determine the dissociation constant for a given interaction.
The “A” and “G” assays described supra can be used to determine the “apparent affinity” of binding of a PDZ ligand peptide to a PDZ-domain polypeptide. Apparent affinity is determined based on the concentration of one molecule required to saturate the binding of a second molecule (e.g., the binding of a ligand to a receptor). Two particularly useful approaches for quantitation of apparent affinity of PDZ-ligand binding are provided infra.
In cases where satisfying the above criteria proves difficult, an alternative approach (infra) can be used.
(1) A fixed concentration of a PDZ-domain polypeptide and increasing concentrations of a labeled PL peptide (labeled with, for example, biotin or fluorescein, see TABLE 9 for representative peptide amino acid sequences) are mixed together in solution and allowed to react. In certain assays, peptide concentrations are 0.1 uM, 1 uM, 10 uM, 100 uM, 1 mM. In other assays, appropriate reaction times can range from 10 minutes to 2 days at temperatures ranging from 4° C. to 37° C. In some instances, the identical reaction can also be carried out using a non-PDZ domain-containing protein as a control (e.g., if the PDZ-domain polypeptide is fusion protein, the fusion partner can be used).
(2) PDZ-ligand complexes can be separated from unbound labeled peptide using a variety of methods known in the art.
(3) The PDZ-ligand complex is detected based on presence of the label on the peptide ligand using a variety of methods and detectors known to one of skill in the art. For example, if the label is fluorescein and the separation is achieved using HPSEC, an in-line fluorescence detector can be used. The binding can also be detected as described supra for the G assay.

Test [5] has as its target T5, PDZ protein (GST-PDZ fusion) (Homo sapiens, UniProt P55196).
T5 construct: made in house; host or cells: E. coli (DH5alpha, BL21 or JM109)
Description: G' assay (10 uM PL peptide), results of TABLE 7 and TABLE 12. To be noted: PDZ AF6, PDZ Domain 1. The essentials:
as §1

In test [6] the target is T6, PDZ protein (GST-PDZ fusion) (Homo sapiens, UniProt Q12923).
T6 construct: made in house; host or cells: E. coli (DH5alpha, BL21 or JM109)
Described as above. To be noted: PDZ PTPL-1, PDZ Domain 4. The essentials:
as §1

In test [7] the target is T7, PDZ protein (GST-PDZ fusion) (Homo sapiens, UniProt Q8NI35).
T7 construct: made in house; host or cells: E. coli (DH5alpha, BL21 or JM109)
Described as above. To be noted: PDZ INADL, PDZ Domain 3. The essentials:
as §1

The target of test [8] is T8, PDZ protein (GST-PDZ fusion) (Homo sapiens, UniProt Q02410).
T8 construct: made in house; host or cells: E. coli (DH5alpha, BL21 or JM109)
T8 sequence (Q02410 1-837): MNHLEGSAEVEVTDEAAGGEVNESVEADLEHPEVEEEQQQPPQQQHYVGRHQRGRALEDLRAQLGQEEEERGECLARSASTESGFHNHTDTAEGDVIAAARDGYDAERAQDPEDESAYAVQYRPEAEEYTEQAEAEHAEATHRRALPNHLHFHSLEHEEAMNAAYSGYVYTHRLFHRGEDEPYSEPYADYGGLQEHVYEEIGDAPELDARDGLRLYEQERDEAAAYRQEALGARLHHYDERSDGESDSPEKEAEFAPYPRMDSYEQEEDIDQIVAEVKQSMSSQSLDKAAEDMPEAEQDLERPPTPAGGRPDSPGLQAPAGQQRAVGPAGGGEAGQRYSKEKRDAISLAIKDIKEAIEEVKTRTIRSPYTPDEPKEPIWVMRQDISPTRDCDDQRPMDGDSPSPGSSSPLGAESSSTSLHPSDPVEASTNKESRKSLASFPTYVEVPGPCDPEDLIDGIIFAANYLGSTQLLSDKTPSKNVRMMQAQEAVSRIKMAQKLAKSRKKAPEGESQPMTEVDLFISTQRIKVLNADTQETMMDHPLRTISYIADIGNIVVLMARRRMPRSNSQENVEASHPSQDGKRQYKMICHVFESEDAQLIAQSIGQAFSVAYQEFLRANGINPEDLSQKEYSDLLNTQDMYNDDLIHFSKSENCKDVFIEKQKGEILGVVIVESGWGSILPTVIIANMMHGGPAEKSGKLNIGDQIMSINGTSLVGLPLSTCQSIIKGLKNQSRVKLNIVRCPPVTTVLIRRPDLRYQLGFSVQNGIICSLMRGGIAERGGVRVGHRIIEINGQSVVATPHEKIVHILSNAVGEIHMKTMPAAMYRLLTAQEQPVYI
The test is described as above. To be noted: PDZ Mint 1, PDZ Domain 1, 2. The essentials:
as §1

Test [9] concerns the target T9, PDZ protein (GST-PDZ fusion) (Homo sapiens, UniProt Q5TCQ9).
T9 construct: made in house; host or cells: E. coli (DH5alpha, BL21 or JM109)
T9 sequence (Q5TCQ9 1-1481): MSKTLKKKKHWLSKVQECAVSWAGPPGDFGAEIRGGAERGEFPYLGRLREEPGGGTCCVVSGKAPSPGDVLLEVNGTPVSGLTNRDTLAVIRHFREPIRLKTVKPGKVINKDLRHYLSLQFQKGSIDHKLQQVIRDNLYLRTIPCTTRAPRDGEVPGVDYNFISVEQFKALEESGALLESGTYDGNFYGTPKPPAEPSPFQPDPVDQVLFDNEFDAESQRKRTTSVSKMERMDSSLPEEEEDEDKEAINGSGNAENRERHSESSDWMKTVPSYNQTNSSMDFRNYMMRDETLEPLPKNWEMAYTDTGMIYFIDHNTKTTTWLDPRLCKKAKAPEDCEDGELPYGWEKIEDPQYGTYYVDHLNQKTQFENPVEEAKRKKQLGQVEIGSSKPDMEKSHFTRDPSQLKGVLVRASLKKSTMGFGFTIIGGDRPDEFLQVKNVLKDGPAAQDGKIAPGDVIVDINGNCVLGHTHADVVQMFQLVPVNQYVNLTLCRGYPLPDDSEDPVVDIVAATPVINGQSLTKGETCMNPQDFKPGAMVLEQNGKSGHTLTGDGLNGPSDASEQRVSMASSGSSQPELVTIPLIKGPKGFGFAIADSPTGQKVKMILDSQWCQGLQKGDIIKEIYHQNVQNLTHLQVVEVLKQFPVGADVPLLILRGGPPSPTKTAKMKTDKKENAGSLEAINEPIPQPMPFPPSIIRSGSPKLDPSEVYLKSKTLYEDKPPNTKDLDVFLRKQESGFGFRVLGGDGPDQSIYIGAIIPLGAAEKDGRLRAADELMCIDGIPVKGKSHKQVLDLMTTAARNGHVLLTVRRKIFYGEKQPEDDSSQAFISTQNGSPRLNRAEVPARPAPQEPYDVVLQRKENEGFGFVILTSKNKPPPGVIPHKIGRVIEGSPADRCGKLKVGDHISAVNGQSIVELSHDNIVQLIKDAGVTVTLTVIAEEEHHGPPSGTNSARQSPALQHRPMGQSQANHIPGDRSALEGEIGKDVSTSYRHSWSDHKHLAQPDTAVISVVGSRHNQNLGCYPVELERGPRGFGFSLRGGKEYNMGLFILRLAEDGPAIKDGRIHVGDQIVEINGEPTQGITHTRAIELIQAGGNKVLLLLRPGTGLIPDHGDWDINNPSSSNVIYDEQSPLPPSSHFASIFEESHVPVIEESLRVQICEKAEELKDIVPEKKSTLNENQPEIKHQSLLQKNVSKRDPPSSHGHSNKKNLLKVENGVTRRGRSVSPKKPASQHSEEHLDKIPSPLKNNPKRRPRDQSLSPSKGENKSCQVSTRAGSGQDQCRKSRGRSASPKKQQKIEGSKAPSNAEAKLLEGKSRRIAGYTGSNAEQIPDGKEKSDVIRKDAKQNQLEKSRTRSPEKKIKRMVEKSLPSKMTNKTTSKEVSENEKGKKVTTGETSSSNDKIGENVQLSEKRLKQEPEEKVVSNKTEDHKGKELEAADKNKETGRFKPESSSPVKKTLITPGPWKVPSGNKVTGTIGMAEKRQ
The description is as above. To be noted: PDZ KIAA1634, PDZ Domain 1. The essentials: as §1

The record followed here is patent US20050282743A1, “Molecular interactions in cells” (Arbor Vita Corporation, priority 2001, published 2005).

Ends that are not written are not given here. Peptide text beside a SMILES is read from it. * marks the point of attachment. Biotin = O=C1N[C@H]2[C@H](CS[C@H]2CCCCC(=O)*)N1

T5 sequence (P55196 whole entry, the tested form may be a part): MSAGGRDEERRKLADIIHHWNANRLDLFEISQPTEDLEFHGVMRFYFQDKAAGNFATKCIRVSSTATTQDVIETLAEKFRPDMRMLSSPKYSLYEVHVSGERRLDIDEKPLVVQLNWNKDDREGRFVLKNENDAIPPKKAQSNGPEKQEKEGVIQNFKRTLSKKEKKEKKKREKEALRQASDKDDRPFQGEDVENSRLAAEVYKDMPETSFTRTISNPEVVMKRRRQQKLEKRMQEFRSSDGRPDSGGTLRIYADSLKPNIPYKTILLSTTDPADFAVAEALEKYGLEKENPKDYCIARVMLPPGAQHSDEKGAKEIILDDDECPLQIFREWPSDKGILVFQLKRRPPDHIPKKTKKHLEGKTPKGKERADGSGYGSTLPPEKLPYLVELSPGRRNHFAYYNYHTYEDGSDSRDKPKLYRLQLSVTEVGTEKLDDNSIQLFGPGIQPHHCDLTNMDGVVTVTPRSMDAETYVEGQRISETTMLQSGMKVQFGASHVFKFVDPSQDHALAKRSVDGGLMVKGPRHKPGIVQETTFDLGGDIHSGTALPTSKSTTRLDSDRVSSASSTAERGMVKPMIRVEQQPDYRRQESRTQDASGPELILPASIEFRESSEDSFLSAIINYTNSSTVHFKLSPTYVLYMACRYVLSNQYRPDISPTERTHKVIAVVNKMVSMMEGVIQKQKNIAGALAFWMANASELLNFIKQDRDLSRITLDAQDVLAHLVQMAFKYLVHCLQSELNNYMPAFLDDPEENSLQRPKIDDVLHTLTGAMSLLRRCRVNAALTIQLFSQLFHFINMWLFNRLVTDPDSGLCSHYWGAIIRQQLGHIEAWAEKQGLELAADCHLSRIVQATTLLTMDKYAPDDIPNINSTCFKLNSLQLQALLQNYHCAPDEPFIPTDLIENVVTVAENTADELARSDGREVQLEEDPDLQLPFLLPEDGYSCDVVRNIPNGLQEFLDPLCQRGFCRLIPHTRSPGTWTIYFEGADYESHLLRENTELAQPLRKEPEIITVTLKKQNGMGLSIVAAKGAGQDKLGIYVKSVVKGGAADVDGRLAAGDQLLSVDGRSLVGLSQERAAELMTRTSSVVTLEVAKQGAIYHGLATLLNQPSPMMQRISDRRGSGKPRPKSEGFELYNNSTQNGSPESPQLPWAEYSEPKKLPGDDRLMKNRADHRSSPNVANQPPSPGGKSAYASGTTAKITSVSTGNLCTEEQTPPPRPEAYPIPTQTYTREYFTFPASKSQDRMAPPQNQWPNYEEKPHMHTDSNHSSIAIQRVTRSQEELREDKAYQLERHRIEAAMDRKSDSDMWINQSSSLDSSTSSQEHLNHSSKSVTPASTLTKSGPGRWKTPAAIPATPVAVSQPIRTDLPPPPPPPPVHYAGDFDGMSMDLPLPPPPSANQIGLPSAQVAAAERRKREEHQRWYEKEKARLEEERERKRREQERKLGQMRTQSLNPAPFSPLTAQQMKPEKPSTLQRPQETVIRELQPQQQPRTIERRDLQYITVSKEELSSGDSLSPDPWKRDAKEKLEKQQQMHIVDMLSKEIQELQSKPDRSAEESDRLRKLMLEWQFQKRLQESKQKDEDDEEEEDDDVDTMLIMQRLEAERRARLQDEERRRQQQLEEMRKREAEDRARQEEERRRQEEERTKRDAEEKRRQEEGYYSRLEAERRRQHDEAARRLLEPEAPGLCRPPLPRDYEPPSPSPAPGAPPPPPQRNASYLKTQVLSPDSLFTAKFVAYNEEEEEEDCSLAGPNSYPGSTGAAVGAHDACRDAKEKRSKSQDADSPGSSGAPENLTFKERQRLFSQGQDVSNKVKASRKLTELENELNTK
T2 sequence (Q6P0Q8 whole entry, the tested form may be a part): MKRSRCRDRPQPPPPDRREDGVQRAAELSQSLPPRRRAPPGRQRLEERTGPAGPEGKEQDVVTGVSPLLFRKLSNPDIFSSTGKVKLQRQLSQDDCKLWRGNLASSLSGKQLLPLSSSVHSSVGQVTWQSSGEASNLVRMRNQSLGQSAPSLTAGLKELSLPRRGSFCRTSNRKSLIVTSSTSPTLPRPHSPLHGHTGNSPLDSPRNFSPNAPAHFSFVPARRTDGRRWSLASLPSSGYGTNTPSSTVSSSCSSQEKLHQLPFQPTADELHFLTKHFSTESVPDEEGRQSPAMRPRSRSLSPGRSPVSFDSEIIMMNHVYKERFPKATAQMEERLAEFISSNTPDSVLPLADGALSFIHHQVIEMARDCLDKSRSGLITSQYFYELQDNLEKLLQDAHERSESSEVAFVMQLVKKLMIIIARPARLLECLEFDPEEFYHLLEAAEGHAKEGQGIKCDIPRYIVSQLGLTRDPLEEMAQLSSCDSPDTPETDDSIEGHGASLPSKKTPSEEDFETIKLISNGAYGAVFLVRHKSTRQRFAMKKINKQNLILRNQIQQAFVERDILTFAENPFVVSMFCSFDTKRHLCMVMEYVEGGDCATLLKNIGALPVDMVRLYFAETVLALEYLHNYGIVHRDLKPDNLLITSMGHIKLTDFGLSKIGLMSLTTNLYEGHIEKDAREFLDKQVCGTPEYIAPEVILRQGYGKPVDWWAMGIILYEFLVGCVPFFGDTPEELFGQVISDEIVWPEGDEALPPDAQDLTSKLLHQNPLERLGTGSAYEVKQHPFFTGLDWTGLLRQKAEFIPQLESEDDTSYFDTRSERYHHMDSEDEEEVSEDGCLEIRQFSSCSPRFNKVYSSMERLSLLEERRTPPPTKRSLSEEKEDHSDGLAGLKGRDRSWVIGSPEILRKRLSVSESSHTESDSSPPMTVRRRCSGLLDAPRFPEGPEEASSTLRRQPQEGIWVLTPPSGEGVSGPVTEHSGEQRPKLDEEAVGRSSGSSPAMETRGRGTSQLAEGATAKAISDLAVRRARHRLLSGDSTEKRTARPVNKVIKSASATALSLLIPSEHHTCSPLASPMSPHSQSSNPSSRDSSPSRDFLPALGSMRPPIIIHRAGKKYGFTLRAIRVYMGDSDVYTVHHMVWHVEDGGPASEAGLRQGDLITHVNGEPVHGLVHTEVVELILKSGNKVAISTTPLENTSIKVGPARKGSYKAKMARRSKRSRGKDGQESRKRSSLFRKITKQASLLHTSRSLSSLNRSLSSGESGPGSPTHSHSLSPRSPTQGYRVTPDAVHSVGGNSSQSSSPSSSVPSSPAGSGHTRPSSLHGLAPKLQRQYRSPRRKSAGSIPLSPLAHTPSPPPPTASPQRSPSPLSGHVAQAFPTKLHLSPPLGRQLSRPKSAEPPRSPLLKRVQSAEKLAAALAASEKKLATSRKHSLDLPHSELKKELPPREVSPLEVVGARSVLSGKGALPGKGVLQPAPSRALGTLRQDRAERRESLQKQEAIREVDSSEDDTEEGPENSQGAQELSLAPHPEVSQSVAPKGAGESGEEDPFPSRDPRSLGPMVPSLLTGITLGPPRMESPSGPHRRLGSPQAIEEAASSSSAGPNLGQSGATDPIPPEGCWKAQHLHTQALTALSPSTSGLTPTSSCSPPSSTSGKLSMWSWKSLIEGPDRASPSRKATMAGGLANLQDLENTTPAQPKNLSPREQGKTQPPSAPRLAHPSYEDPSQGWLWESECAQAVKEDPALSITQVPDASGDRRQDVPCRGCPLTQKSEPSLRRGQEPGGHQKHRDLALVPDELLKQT

As for `CC[C@H](C)[C@H](NC(=O)[C@H](CO)NC(=O)[C@@H](NC(=O)CNC(=O)[C@H](CCCNC(=N)N)NC(=O)[C@H](CC(=O)O)NC(=O)[C@@H]1CCCN1C(=O)[C@H](CC(=O)O)NC(=O)[C@H](CC(N)=O)NC(=O)CNC(=O)[C@H](CC(C)C)NC(=O)[C@H](CC(N)=O)NC(=O)[C@H](CC(C)C)NC(=O)CNC(=O)[C@H](CC(C)C)NC(=O)[C@@H](NC(=O)[C@@H]1CCCN1C(=O)[C@@H](NC(=O)[C@@H]1CCCN1C(=O)[C@H](CCC(N)=O)NC(=O)CCCC[C@@H]1SC[C@@H]2NC(=O)N[C@@H]21)[C@@H](C)O)[C@@H](C)O)[C@@H](C)O)C(=O)O` [GluR delta-2] (Biotin-QPTPTLGLNLGNDPDRGTSI-OH; C-terminus assumed), the Classification is 2 (A450 nm 1-2) in test [1]; 4 (A450 nm 3-4) in test [2] (PDZ KIAA0807(S), PDZ Domain 1); 3 (A450 nm 2-3) in test [2] (PDZ KIAA807, PDZ Domain not given); 2 (A450 nm 1-2) in [3]. In [4], the Kd stood at 4 µM.

With “YSQPSARSEGEFKQTSSFLV (Biotin-YSQPSARSEGEFKQTSSFLV) [JAM (junctional adhesion molecule)]”, the Classification in [5], in [6] and in test [7] was 1 (A450 nm 0-1) throughout.

In the case of “SSPDSSYQGKGFVMSRAMYV (Biotin-SSPDSSYQGKGFVMSRAMYV) [Nectin 2]”, the values for the Classification in test [5], in test [8] and in test [9] were 2 (A450 nm 1-2), 2 (A450 nm 1-2) and 1 (A450 nm 0-1), respectively.
